Test results published in US6528312B1, “Use of G-actin for improving transfection of a polynucleotide into a cell” (Transgene S.A., priority 1998, dated 2003).

B1: IL-10: human recombinant IL-10 (Sigma) (protein, UniProt P22301 19-178, looked up)
Interleukin-10: SPGQGTQSENSCTHFPGNLPNMLRDLRDAFSRVKTFFQMKDQLDNLLLKESLLEDFKGYLGCQALSEMIQFYLEEVMPQAENQDPDIKAHVNSLGENLKTLRLRLRRCHRFLPCENKSKAVEQVKNAFNKLQEKGIYKAMSEFDIFINYIEAYMTMKIRN

Experiments:
[1] = test system: tibialis anterior muscles of mdx mice; assay: Intramuscular transfer of dystrophin plasmid pTG11025, dystrophin immunohistochemistry; format: in vivo, mouse; conditions: pTG11025 i.m. with adjuvant (IL-10 0.1 μg, DMSO 10% final, G-actin 10 μg), notexin 3 days before, 7 days after injection; mean +/- sem
Method: (§1) Plasmids are prepared according to Bischoff et al. (Analytical Biochemistry 254 (1997), 69-81). The tested interleukin-10s were mixed with the plasmid preparation (pTG11033: CMV promoter, β-globin intron, luciferase cassette; pTG11025: CMV promoter, β-globin intron, dystrophin cassette; both diluted in 0.9% NaCl), prior to intramuscular injection. 25 μg of plasmid are injected per muscle in 5 to 10 week-old C57BI/10 or mdx mice. The 2 tibialis anterior (right and left) muscles were injected (each muscle was considered as a sample, which means number of samples per condition=2×number of mice per condition).
(§2) One week after injection of the composition, mice were killed and the tibialis anterior muscles were retrieved and frozen. Based on the injected vector, either luciferase activity was determined in muscle extracts, or dystrophin expression was evaluated by immunohistochemistry.
Muscle samples were frozen in liquid nitrogen-cooled isopentane and stored at −80° C. […]
In a second experiment mdx mice were 3 times injected intramuscularly with pTG11025 (dystrophin) plus DMSO, G-actin and IL-10 after notexin-induced muscle regeneration. Plasmid-adjuvant injections were repeated 3 times in raw on a daily basis and dystrophin expression (immunohistochemistry) was evaluated 7 days after the last injection. […]

[2] = test system: tibialis anterior muscles of C57BL/10 mice; assay: Intramuscular transfection of luciferase plasmid pTG11033, luciferase activity of injected muscles; format: in vivo, mouse; conditions: IL-10 0.01 and 0.1 μg + 25 μg pTG11033 per muscle, dose-dependent
Method: as §1, §2
Luciferase activity was quantified using a conventional measurement kit (Luciferase Assay System, Promega). […] Luciferase activity was expressed as number of RLU emitted per minute.
Proteins were measured on 10 μl samples using a VCA Protein Assay Kit (Pierce). […]
One week after injection of the vectors, the mice were killed and the tibialis anterior muscles were retrieved and frozen. Luciferase activity was determined on muscle extracts. […]

| Molecule | Number of dystrophin-positive fibers per cryosection [1] | increase of luciferase expression [2] |
| --- | --- | --- |
| C[S+](C)[O-] [DMSO, dimethylsulfoxide] | 37.8 +/− 5.5 |  |
| B1 | 21.7 +/− 1.9 | 3 factor |
